From patent US20170298146A1 (MODIQUEST B V, published 2017)
Non-standard residues stand in square brackets, D forms with d. No end group written: not given here. Cit = NC(=O)NCCC[C@H](N)C(=O)O

Experiments:
huFibα XG = biological target: T1, huFibα XG (human, X at position 8 is citrulline; biotin label); experiment: peptide ELISA, 0.08 ug/well
T1 peptide: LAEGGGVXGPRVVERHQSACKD
Description: (§1) Biotin and citrulline-containing peptides derived from fibrinogen and vimentin were immobilized on NEUTRAVIDIN®-coated 96-well ELISA plates (0.3 μg/well). CFC-1 and CFC-0 were coated at the same concentration and served as positive and negative controls respectively for specific anti-citrulline reactivity and as coating controls. Non-coated wells were used to test for aspecific binding of the antibodies. […] Detection of bound anti-citrulline antibodies was performed by incubating the wells with rabbit-anti-human-HRP (1:2000) for one hour at RT followed by incubation with TMB substrate. The resulting OD (y-axis) is a measure for antibody binding.
(§2) Biotin-labeled and citrulline-containing fibrinogen and vimentin peptides (Table 5) were also tested for reactivity with the therapeutic antibodies. Peptides were coated on 96-well NEUTRAVIDIN®-ELISA plates.

huFibα XH = biological target: T2, huFibα XH (human, X at position 15 is citrulline; biotin label); experiment: peptide ELISA, 0.08 ug/well
T2 peptide: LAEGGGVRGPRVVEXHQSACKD
Description: as §1, §2

msVim XS/XL = biological target: T3, msVim XS/XL (mouse, also: biotin label); experiment: peptide ELISA, 0.08 ug/well
T3 construct: also called mouse vimentin peptide
T3 peptide: YVT[Cit]SSAV[Cit]L[Cit]SSVP
Description: as §1, §2

msFibα XG = biological target: T4, msFibα XG (mouse, X at position 8 is citrulline; biotin label); experiment: peptide ELISA, 0.08 ug/well
T4 peptide: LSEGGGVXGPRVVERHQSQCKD
Description: as §1, §2

msFibα XH = biological target: T5, msFibα XH (mouse, X at position 15 is citrulline; biotin label); experiment: peptide ELISA, 0.08 ug/well
T5 peptide: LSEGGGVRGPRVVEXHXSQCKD
Description: as §1, §2

CFC-1 [1] = biological target: T6, CFC-1; experiment: peptide ELISA, 0.08 ug/well
T6 construct: Positive control for anti-citrulline reactivity; also called cfc1 XG
Description: as §1, §2

msFibβ XG = biological target: T7, msFibβ XG (mouse, also: biotin label); experiment: peptide ELISA, 0.08 ug/well
T7 peptide: EPTDSLDA[Cit]GHRPVDRR
Description: as §1, §2

[2] = biological target: T8, Histone 2A citrulline-containing peptide 8 (human, also: biotin label); experiment: peptide ELISA, 10 ug/well
T8 peptide: AGNAA[Cit]DNKKTR
Description: as §1, with “histone 2A” for “fibrinogen and vimentin”
(§3) Ninety-six-well ELISA plates were coated with NEUTRAVIDIN® (0.1 μg/well) by overnight incubation at 4° C. Wells were washed five times with PBS-TWEEN®-20 (PBS-T) and blocked by a one-hour incubation with PBS-T+1% Bovine serum albumin (BSA) at room temperature (RT). After five more washes with PBS-T, wells were incubated for one hour at RT with histone-derived citrulline and biotin-containing peptides (0.3 μg/well). […] Wells were washed five times with PBS-T and incubated with rabbit-anti-human-HRP (1:2000) for one hour at RT followed by five washes with PBS-T and three wash steps with PBS. Wells were incubated for five minutes with TMB substrate before stopping the reaction with 2 M H₂SO₄. Optical density was measured by 450 nm and is a measure for the affinity of the antibodies used.

[3] = biological target: T9, Histone 2A citrulline-containing peptide 7 (human, also: biotin label); experiment: peptide ELISA, 10 ug/well
T9 peptide: GNYSE[Cit]VGAGAP
Description: as §1, with “histone 2A” for “fibrinogen and vimentin”
as §3

[4] = biological target: T10, Histone 2A citrulline-containing peptide 11 (human, also: biotin label); experiment: peptide ELISA, 10 ug/well
T10 peptide: LQLAI[Cit]NDEELN
Description: as §1, with “histone 2A” for “fibrinogen and vimentin”
as §3

[5] = biological target: T11, Histone 2A citrulline-containing peptide 4 (human, also: biotin label); experiment: peptide ELISA, 10 ug/well
T11 peptide: QFPVG[Cit]VHRLLR
Description: as §1, with “histone 2A” for “fibrinogen and vimentin”
as §3

[6] = biological target: T12, Histone 2A citrulline-containing peptide 10 (human, also: biotin label); experiment: peptide ELISA, 10 ug/well
T12 peptide: TRIIP[Cit]HLQLAI
Description: as §1, with “histone 2A” for “fibrinogen and vimentin”
as §3

[7] = biological target: T13, Histone 2A citrulline-containing peptide 12 (human, also: biotin label); experiment: peptide ELISA, 10 ug/well
T13 peptide: NKLLG[Cit]VTIAQG
Description: as §1, with “histone 2A” for “fibrinogen and vimentin”
as §3

[8] = biological target: T14, Histone 2A citrulline-containing peptide 1 (human, also: biotin label); experiment: peptide ELISA, 0.016 ug/well
T14 construct: also called AAASGXGKQGGK
T14 peptide: AAASG[Cit]GKQGGK
Description: as §1, with “histone 2A” for “fibrinogen and vimentin”
as §3

[9] = biological target: T15, Histone 2A citrulline-containing peptide 2 (human, also: biotin label); experiment: peptide ELISA, 0.016 ug/well
T15 peptide: AKAKS[Cit]SSRAGL
Description: as §1, with “histone 2A” for “fibrinogen and vimentin”
as §3

[10] = biological target: T16, Histone 2A citrulline-containing peptide 3 (human, also: biotin label); experiment: peptide ELISA, 0.016 ug/well
T16 peptide: KSRSS[Cit]AGLQFP
Description: as §1, with “histone 2A” for “fibrinogen and vimentin”
as §3

[11] = biological target: T8, Histone 2A citrulline-containing …; experiment: peptide ELISA, 0.016 ug/well
Description: as §1, with “histone 2A” for “fibrinogen and vimentin”
as §3

[12] = biological target: T17, Histone 2A citrulline-containing peptide 6 (human, also: biotin label); experiment: peptide ELISA, 0.016 ug/well
T17 peptide: VHRLL[Cit]KGNYSE
Description: as §1, with “histone 2A” for “fibrinogen and vimentin”
as §3

[13] = biological target: T9, Histone 2A citrulline-containing …; experiment: peptide ELISA, 0.016 ug/well
Description: as §1, with “histone 2A” for “fibrinogen and vimentin”
as §3

[14] = biological target: T10, Histone 2A citrulline-containing …; experiment: peptide ELISA, 0.016 ug/well
Description: as §1, with “histone 2A” for “fibrinogen and vimentin”
as §3

[15] = biological target: T11, Histone 2A citrulline-containing …; experiment: peptide ELISA, 0.016 ug/well
Description: as §1, with “histone 2A” for “fibrinogen and vimentin”
as §3

[16] = biological target: T12, Histone 2A citrulline-containing …; experiment: peptide ELISA, 0.016 ug/well
Description: as §1, with “histone 2A” for “fibrinogen and vimentin”
as §3

[17] = biological target: T13, Histone 2A citrulline-containing …; experiment: peptide ELISA, 0.016 ug/well
Description: as §1, with “histone 2A” for “fibrinogen and vimentin”
as §3

[18] = biological target: T18, Histone 2A citrulline-containing peptide 5 (human, also: biotin label); experiment: peptide ELISA, 0.016 ug/well
T18 peptide: VGRVH[Cit]LLRKGN
Description: as §1, with “histone 2A” for “fibrinogen and vimentin”
as §3

CFC-1 [19] = biological target: T6, CFC-1; experiment: peptide ELISA, 0.016 ug/well
Description: as §1, with “histone 2A” for “fibrinogen and vimentin”
as §3

[20] = biological target: T19, Histone 2A citrulline-containing peptide 9 (human, also: biotin label); experiment: peptide ELISA, 0.016 ug/well
T19 peptide: DNKKT[Cit]IIPRHL
Description: as §1, with “histone 2A” for “fibrinogen and vimentin”
as §3

B1: RhmAb2.102 (antibody, human IgG1, lambda)
heavy: not shown
light: QSVLTQPPSMSAAPGQKVTISCSGSSSNIGNNYVSWYQQVPGTAPKLLIYDDNKRPSGIPGRFSGSKSATSATLGITGLQAGDEADYYCGSWDDNLSVVLFGGGTKLTVLGQPKAAPSVTLFPPSSEELQANKATLVCLISDFYPGAVTVAWKADSSPVKAGVETTTPSKQSNNKYAASSYLSLTPEQWKSHRSYSCQVTHEGSTVEKTVAPTECS
notes: Human IgG1 lambda; also called Rhm2.102
For B1, the OD (huFibα XG) was 0.186 OD, the OD (huFibα XH) was 0.08 OD and the OD (msVim XS/XL) was 0.515 OD. The OD (msFibα XG) was 0.237 OD, the OD (msFibα XH) was 0.076 OD and the OD (CFC-1 [1]) was 3.03 OD. For the same binder, the OD (msFibβ XG) was 0.515 OD, the OD [2] was 0.082 OD and the OD [3] was 0.08 OD. The OD [4] was 0.088 OD, the OD [5] was 2.06 OD and the OD [6] was 0.091 OD. It also gave an OD [7] of 0.083 OD, an OD [8] of 0.843 OD and an OD [9] of 0.065 OD. It also gave an OD [10] of 0.07 OD, an OD [11] of 0.063 OD and an OD [12] of 0.075 OD. For the same binder, the OD [13] was 0.061 OD, the OD [14] was 0.069 OD and the OD [15] was 0.084 OD. For the same binder, the OD [16] was 0.066 OD, the OD [17] was 0.057 OD and the OD [18] was 0.065 OD. The OD (CFC-1 [19]) was 1.46 OD and the OD [20] was 0.064 OD.
